From patent US20140141023A1 (PIERRE FABRE MEDICAMENT, published 2014)

T1: human protein Axl expressed on cells (SN12C human renal tumor cells; CHO-Axl cells) (human, UniProt P30530 26-894)
T1 construct: also called membrane Axl receptor; cell-surface Axl
T1 sequence: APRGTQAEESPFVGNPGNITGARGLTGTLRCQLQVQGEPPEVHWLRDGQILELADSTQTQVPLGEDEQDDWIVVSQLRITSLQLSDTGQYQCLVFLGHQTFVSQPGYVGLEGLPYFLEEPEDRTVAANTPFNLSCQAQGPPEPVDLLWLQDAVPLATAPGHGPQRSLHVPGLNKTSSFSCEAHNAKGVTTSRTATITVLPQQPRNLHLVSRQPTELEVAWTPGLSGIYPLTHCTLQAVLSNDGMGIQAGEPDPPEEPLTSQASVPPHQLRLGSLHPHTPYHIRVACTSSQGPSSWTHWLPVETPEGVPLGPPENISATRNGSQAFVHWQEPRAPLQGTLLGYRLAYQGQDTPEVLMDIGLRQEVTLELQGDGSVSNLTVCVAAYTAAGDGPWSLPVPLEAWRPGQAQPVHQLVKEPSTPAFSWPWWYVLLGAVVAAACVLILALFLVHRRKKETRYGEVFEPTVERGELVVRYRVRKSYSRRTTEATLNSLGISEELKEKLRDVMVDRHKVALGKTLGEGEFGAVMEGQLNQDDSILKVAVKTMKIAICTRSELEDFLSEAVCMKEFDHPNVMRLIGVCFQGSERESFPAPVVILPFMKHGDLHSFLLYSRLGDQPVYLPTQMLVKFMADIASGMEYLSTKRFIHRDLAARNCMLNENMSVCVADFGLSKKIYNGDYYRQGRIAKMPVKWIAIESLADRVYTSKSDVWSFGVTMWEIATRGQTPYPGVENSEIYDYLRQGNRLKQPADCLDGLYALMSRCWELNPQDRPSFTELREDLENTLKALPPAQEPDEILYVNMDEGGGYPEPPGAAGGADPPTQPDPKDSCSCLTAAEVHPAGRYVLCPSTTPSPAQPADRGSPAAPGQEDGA

B1: 1613F12 (antibody, V domains shown)
VH: EVHLQQSGAELVKPGASVKLSCTASGFNIRDTYIHWVKQRPEQGLEWIGRLDPANGHTKYGPNFQGRATMTSDTSSNTAYLQLSSLTSEDTAVYYCARGAYYYGSSGLFYFDYWGQGTTLSVSS
VL: DVQITQSPSYLATSPGETITINCRASKSISKYLAWYQEKPGKTNKLLIYSGSTLQSGVPSRFSGSGSGTDFTLTISSLEPEDFAMYFCQQHHEYPLTFGAGTELELK
notes: also called 1613F12 antibody; 1613F12 Mab

Key:
[1] = target: human protein Axl expressed on cells (SN12C human renal tumor cells; CHO-Axl cells) (human) (UniProt P30530); assay: QIFIKIT quantitative flow cytometry on Calu-1 cells (lung)
[2] = target: human protein Axl expressed on cells (SN12C human renal tumor cells; CHO-Axl cells) (human) (UniProt P30530); assay: QIFIKIT quantitative flow cytometry on MCF7 cells (breast)
[3] = target: human protein Axl expressed on cells (SN12C human renal tumor cells; CHO-Axl cells) (human) (UniProt P30530); assay: QIFIKIT quantitative flow cytometry on SN12C cells (renal)
[4] = target: human protein Axl expressed on cells (SN12C human renal tumor cells; CHO-Axl cells) (human) (UniProt P30530); assay: flow cytometry, labelling of untreated (No Ab) SN12C cells
[5] = target: human protein Axl expressed on cells (SN12C human renal tumor cells; CHO-Axl cells) (human) (UniProt P30530); assay: QIFIKIT quantitative flow cytometry on PC3 cells (prostate)
[6] = target: human protein Axl expressed on cells (SN12C human renal tumor cells; CHO-Axl cells) (human) (UniProt P30530); assay: QIFIKIT quantitative flow cytometry on NCI-H125 cells (NSCLC)
[7] = target: human protein Axl expressed on cells (SN12C human renal tumor cells; CHO-Axl cells) (human) (UniProt P30530); assay: QIFIKIT quantitative flow cytometry on NCI-H226 cells (NSCLC)
[8] = target: human protein Axl expressed on cells (SN12C human renal tumor cells; CHO-Axl cells) (human) (UniProt P30530); assay: QIFIKIT quantitative flow cytometry on Panc1 cells (pancreas)
[9] = target: human protein Axl expressed on cells (SN12C human renal tumor cells; CHO-Axl cells) (human) (UniProt P30530); assay: QIFIKIT quantitative flow cytometry on DU-145 cells (prostate)
[10] = target: human protein Axl expressed on cells (SN12C human renal tumor cells; CHO-Axl cells) (human) (UniProt P30530); assay: QIFIKIT quantitative flow cytometry on A172 cells (glioblastoma)
[11] = target: human protein Axl expressed on cells (SN12C human renal tumor cells; CHO-Axl cells) (human) (UniProt P30530); assay: QIFIKIT quantitative flow cytometry on MDA-MB-231 cells (breast)
[12] = target: human protein Axl expressed on cells (SN12C human renal tumor cells; CHO-Axl cells) (human) (UniProt P30530); assay: QIFIKIT quantitative flow cytometry on MDA-MB-435S cells (breast)
[13] = target: human protein Axl expressed on cells (SN12C human renal tumor cells; CHO-Axl cells) (human) (UniProt P30530); assay: QIFIKIT quantitative flow cytometry on A431 cells (epidermoid carcinoma)
[14] = target: human protein Axl expressed on cells (SN12C human renal tumor cells; CHO-Axl cells) (human) (UniProt P30530); assay: Qifikit (Dako) quantitative flow cytometry on SN12C human renal cancer cells
[15] = target: human protein Axl expressed on cells (SN12C human renal tumor cells; CHO-Axl cells) (human) (UniProt P30530); assay: flow cytometry, labelling of SN12C cells treated 24 h with 9G4 at 10 µg/ml
[16] = target: monkey Axl receptor expressed on the surface of COS7 cells (African green monkey); assay: flow cytometry titration on COS7 cells
[17] = target: monkey Axl receptor expressed on the surface of COS7 cells (African green monkey); assay: flow cytometry on COS7 cells, goat anti-mouse Alexa 488
[18] = target: T1, human protein Axl expressed on cells …; assay: flow cytometry on SN12C cells, goat anti-mouse Alexa 488

Molecule | ABC (Qifikit) [1] [ABC] | ABC (Qifikit) [2] [ABC] | ABC (Qifikit) [3] [ABC] | MFI at T24 h [4] [MFI] | ABC (Qifikit) [5] [ABC] | ABC (Qifikit) [6] [ABC] | ABC (Qifikit) [7] [ABC] | ABC (Qifikit) [8] [ABC] | ABC (Qifikit) [9] [ABC] | ABC (Qifikit) [10] [ABC] | ABC (Qifikit) [11] [ABC] | ABC (Qifikit) [12] [ABC] | ABC (Qifikit) [13] [ABC] | Antigen binding capacity (Qifikit) [14] [ABC] | MFI at T24 h [15] [MFI] | concentration above which the plateau is reached [16] [pM] | EC50 (read off the curve) [17] [nM] | EC50 (read off the curve) [18] [nM]
MAB154 anti-Axl commercial antibody (R and D Systems) | > 100000 | 71 | > 100000 | 950 | 8420 | 5540 | 32100 | 36800 | 55300 | 52400 | 61200 | 17800 | 3950 | > 100000 |  |  |  | 
9G4 (mIgG1 isotype control antibody) |  |  |  | 11 |  |  |  |  |  |  |  |  |  |  | 13 |  |  | 
B1 |  |  |  |  |  |  |  |  |  |  |  |  |  |  |  | > 420 | 1 | ~0.9
